T1: mouse PTPRG ECD (amino acid residues 20-733 of mouse PTPRG) fused to hFc (mouse, UniProt Q05909 20-733)
T1 construct: Produced in-house; also called mPTPRG-ECD; Mouse PTPRG-ECD-hFc; not shown: human Fc (hFc)
T1 sequence: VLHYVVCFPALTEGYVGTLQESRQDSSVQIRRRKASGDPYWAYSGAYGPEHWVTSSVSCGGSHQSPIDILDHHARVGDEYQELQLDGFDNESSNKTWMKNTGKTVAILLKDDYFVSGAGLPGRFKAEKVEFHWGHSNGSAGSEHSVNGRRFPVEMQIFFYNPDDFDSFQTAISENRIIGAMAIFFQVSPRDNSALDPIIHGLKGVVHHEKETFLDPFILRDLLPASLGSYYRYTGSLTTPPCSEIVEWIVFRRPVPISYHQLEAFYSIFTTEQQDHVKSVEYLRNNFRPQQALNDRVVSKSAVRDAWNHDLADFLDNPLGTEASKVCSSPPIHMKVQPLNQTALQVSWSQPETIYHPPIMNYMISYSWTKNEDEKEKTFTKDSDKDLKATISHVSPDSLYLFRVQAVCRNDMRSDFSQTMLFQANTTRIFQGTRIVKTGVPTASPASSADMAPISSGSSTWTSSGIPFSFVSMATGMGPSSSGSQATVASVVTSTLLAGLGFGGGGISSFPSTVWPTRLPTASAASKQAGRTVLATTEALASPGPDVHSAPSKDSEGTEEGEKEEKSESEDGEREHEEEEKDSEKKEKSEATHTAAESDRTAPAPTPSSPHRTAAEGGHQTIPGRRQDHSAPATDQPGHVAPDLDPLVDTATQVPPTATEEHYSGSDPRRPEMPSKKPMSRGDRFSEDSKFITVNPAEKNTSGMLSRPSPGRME

T2: C-terminal domain (CTD) of human PTPRG (amino acid residues 349~736 of human PTPRG) (human, UniProt P23470 349-736)
T2 construct: also called hPTPRG-CTD; human PTPRG carboxyl domain
T2 sequence: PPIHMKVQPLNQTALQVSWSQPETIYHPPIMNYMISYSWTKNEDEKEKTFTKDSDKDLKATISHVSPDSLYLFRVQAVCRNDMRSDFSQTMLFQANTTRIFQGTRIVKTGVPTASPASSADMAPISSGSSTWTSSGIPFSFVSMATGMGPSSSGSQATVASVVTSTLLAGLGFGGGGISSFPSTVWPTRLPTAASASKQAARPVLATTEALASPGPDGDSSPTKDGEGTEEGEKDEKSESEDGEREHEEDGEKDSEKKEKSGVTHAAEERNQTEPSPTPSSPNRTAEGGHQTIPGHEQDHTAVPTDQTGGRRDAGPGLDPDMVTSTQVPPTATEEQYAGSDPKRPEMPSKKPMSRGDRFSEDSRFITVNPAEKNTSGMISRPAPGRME


Assays:
[1] = biological target: T1, mouse PTPRG ECD (amino acid residues …); assay: ELISA, one condition per Fab and antigen; y axis 0 to 1.8 without name or unit
[2] = biological target: T2, C-terminal domain (CTD) of human PTPRG …; assay: as above
[3] = biological target: T3, human PTPRG on the cell surface (U937 cells, HEL cells) (human, UniProt P23470 20-1445); assay: flow cytometry on whole HEL cells, screen of the 28 clones (Ctrl row = 0); PTPRG is named as the antigen on HEL cells only in the later examples
T3 construct: Endogenous PTPRG of human AML cell lines

[4] = biological target: T3, human PTPRG on the cell surface (U937 …); assay: flow cytometry on whole U937 cells, screen of the 28 clones (Ctrl row = 0); PTPRG is named as the antigen on U937 cells only in the later examples

T3 sequence (P23470 20-1445): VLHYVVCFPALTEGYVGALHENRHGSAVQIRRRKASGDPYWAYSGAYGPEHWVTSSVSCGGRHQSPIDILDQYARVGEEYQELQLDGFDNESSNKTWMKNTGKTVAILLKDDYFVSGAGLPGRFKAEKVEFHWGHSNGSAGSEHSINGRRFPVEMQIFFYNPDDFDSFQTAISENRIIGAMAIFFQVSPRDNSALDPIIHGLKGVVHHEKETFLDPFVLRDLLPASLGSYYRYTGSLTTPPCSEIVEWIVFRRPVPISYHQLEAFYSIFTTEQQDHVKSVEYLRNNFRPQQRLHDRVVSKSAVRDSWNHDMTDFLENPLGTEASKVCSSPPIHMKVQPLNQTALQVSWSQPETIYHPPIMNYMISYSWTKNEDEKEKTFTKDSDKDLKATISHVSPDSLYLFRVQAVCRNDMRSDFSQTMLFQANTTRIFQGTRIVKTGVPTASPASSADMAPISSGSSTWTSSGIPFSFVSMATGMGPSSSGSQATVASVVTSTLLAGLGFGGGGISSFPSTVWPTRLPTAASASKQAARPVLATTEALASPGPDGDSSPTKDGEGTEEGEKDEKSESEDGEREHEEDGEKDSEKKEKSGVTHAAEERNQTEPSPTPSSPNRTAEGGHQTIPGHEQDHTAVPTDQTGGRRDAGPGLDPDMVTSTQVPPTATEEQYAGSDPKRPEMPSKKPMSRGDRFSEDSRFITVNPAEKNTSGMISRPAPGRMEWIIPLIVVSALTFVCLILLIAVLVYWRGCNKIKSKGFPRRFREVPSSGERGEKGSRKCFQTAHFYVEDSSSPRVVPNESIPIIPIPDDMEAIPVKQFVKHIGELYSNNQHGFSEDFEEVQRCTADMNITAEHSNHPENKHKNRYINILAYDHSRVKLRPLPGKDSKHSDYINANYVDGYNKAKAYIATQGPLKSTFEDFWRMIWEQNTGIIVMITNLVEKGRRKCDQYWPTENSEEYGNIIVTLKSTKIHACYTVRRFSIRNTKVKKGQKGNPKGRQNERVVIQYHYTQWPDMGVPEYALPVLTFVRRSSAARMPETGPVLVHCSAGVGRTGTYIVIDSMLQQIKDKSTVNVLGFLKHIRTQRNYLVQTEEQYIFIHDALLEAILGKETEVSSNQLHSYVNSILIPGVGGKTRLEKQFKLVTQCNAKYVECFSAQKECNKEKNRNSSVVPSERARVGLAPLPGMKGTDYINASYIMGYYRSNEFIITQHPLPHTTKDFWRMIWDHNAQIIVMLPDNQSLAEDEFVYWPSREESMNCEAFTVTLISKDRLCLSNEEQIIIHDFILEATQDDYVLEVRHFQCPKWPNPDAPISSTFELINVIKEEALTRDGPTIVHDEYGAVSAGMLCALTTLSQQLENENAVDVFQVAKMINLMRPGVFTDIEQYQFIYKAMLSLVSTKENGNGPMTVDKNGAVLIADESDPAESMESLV

Row | binding result [1] | binding result [2] | flow cytometry binding value (the table prints no name or unit) [3] | flow cytometry binding value (the table prints no name or unit) [4] | Binder
1 | binds | no binding | 17.5 | 92.7 | Fab_240 (Fab, V domains shown, Chimeric rabbit/human Fab; also called P240; clone 240) VH: AQSLEESGGRLVTPGTPLTLTCTVSGFSLSAYAMSWVRQAPGKGLEWIGIISSYGNTYYATWAKGRFTISKTSTTVDLKITSPTTEDTATYFCARGDYGNGMSIWGPGTLVTVSS VL: SFVLTQPASVQVNLGQTVSLTCTADTLSRRYASWYQQKPGQAPVLLIYRDTRRPSGVPDRFSGSSSGNTATLTISGAQAGDEADYYCATSDGSGSSYQCVFGGGTQLTVTG
2 | binds | no binding | 15.8 | 87.5 | Fab_17 (Fab, V domains shown, Chimeric rabbit/human Fab; also called P17; clone 17) VH: AQSLEEFGGRLATPGTPLTLTCTASGFSLGTYSMSWVRQAPGKGLEWIGTIGGRGDAYYASWAKGRFTISRTSTTVDLKMTSLATEDTATYFCVRENYGYAFDIWGPGTLVTISS VL: SFVLTQPASVQVNLGQTVSLTCTADTLSRRYASWYQQKPGQAPVLLIYRDTSRPSGVPDRFSGSSSGNTATLTISGAQAGDEADYYCATSDGSGSSYQCVFGGGTQLTVTG
3 | binds | no binding | 14.5 | 85 | Fab_2861 (Fab, V domains shown, Chimeric rabbit/human Fab; also called P2861; clone 2861) VH: AQSVEESGGRLVTPGTPLTLTCTVSGIDLSSYAMGWVRQAPGKGLEYIGIIVSDGRTYYTSWAKGRFTISKTSTTVDLKMTSPTTEDTATYFCAREGYGYYFDIWGPGTLVTISS VL: SFVLTQPASVQVNLGQTVSLTCTADTLSRRYASWYQQKPGQAPVLLIYRDTSRPSGVPDRFSGSSSGNTATLTISGAQAGDEADYYCATADGSGSSYQFVFGGGTQLTVTG
4 |  |  | 15 | 90.9 | Fab_2388 (Fab, V domains shown, Chimeric rabbit/human Fab; also called P2388; clone 2388) VH: QEQLKESGGGLFKPTDTLTLTCTVSGFSLSNYAISLVRQPPGNGLEWIGAIDAGGVTYYASWAKSRSTITRNTNLNTVTLKMTSLTAADTATYFCAREEWSSSSGLYFSIWGPGTLVTISS VL: SFVLTQPASVQVNLGQTVSLTCTADTLSRRYASWYQQKPGQAPVLLIYRDTSRPSGVPDRFSGSSSGNTATLTISGAQAGDEADYYCATSDGSGSSYLYVFGGGTQLTVTG
5 | binds | no binding | 15.8 | 87.5 | Fab_28 (Fab, V domains shown, Chimeric rabbit/human Fab; also called P28; clone 28) VH: AQSVEESGGRLVTPGIPLTLTCTVSGFSLNNYAMSWVRQAPGKGLEWIGMIDSGGAAYYATWARGRFTISRTSTTVDLKITSPTTEDTATYFCARELSSLYGAFDPWGPGTLVTVSS VL: SFVLTQPASVQVNLGQTVSLTCTADTLSRRYASWYQQKPGQAPVLLIYRDTSRPSGVPDRFSGSSSGNTATLTISGAQAGDEADYYCATSDGSGSSYQCVFGGGTQLTVTG
6 | binds | no binding | 16.9 | 92 | Fab_1707 (Fab, V domains shown, Chimeric rabbit/human Fab; also called P1707) VH: AQSLEEFGGGLIKPGGTLTLTCTASGFTISSYDMSWVRQAPGSGLEWIGTMAYGGDTYHASWAKSRSTITRDTNLNTVTLKMTSLTVADTATYFCARDVGSGHYYDDMYLWGPGTLVTVSS VL: SFVLTQPASVQVNFGQTVSLTCTADTLSRRYASWYQQKPGQAPVLLIYRDTSRPSGVPDRFSGSSSGNTATLTISGAQAGDEADYYCATGDGSGSSYNYVFGGGTQLTVTG
7 | binds | no binding | 17.1 | 92.7 | Fab_3208 (Fab, V domains shown, Chimeric rabbit/human Fab; also called P3208; clone 3208) VH: AQSVKESEGGLFKPTDTLTLTCTVSGFSLSSYAISWVRRAPGNGLEWIGAIAGYGDAYYASWAKSRSTITRNTNENTVTLKMTSLTAADTATYFCARDDYNVDTGIWGPGTLVTISS VL: SFVLTQPASVQVNLGQTVSLTCTADTLSRRYASWYQQKPGQAPVLLIYRDTSRPSGVPDRFSGSSSGNTATLTISGAQAGDEADYYCATGDGSGSSYQYVFGGGTQLTVTG
8 |  |  | 10.7 | 29.3 | Fab_1187 (Fab, V domains shown, Chimeric rabbit/human Fab; also called P1187; mAb_1187) VH: AQSVEESGGRLVTPGTPLTLTCTVSGIDLSSYAMSWVRQAPGKGLEWIGVIDGSGSTWYANWVKGRFTISKTTTVDLKITSPTTEDTATYFCAREDYGSETIDFNIWGPGTLVTVSS VL: SFVLTQPASVQVNLGQTVSLTCTADTLSRRYASWYQQKPGQAPVLLIYRDTRRPSGVPDRFSGSSSGNTATLTISGAQAGDEADYYCATSDGSGSSYQYVFGGGTQLTVTG
9 | binds | no binding | 13.6 | 91.4 | Fab_2653 (Fab, V domains shown, Chimeric rabbit/human Fab; also called P2653; clone 2653) VH: QEQLEESGGRLVTPGTPLTLTCTASGFSLSTYAMTWVRQAPGKGLEWIGIIDRYGYTYYANWARGRFTISKTSTTVDLKITSPTTEDTATYFCARDLPGYNVGTYFNMWGPGTLVTISS VL: SFVLTQPASVQVNLGQTVSLTCTADTLSRRYASWYQQKPGQAPVLFIYRDTSRPSGVPDRFSGSSSGSTATLTISGAQAGDEADYYCATSDGSGSSYQFVFGGGTQLTVTG

— US20260265410A1 (UNIVERSITY OF FLORIDA RESEARCH FOUNDATION, published 2026)
